Holding throughout (experiment): ITC
Assay [1] addresses Drosophila Su(H) (98-523) WT (Drosophila) (UniProt P28159).
For the next assay, the target named is mouse Rbpj (53-474) WT (mouse, UniProt P31266 53-474).
A further assay concerns the target mouse Rbpj (53-474) E89G (mouse, UniProt P31266 53-474, E89G).
Assay [2] deals with mouse Rbpj (53-474) K195E (mouse, UniProt P31266 53-474, K195E).
Chain of mouse Rbpj (53-474) K195E (P31266 53-474 K195E): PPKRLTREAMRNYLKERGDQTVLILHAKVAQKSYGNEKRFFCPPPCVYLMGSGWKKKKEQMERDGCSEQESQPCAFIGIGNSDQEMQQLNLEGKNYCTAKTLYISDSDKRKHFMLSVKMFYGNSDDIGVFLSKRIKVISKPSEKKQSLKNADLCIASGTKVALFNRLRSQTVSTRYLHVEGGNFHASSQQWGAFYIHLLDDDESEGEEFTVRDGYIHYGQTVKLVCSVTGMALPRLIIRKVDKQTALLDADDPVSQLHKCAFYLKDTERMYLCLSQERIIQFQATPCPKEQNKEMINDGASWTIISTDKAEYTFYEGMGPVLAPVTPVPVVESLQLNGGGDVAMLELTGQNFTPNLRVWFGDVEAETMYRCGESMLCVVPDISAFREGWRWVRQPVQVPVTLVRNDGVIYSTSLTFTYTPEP

Chain of mouse Rbpj (53-474) WT (P31266 53-474): as the sequence (P31266 53-474 K195E) above, with E143K counted along it
Chain of mouse Rbpj (53-474) E89G (P31266 53-474 E89G): as the sequence (P31266 53-474 K195E) above, with E37G, E143K counted along it

Turning to “Drosophila Notch RAM domain peptide (residues 1763-1790)”, the dissociation constant (Kd) in assay [1] stood at 187 nM. That is a sub-micromolar value.

B1: SHARP residues 2776-2833 (domain or fragment)
chain: RASANENSRFHPGSMPVIDDRPADAGSGAGLRVNTSEGVVLLSYSGQKTEGPQRISAK
Regarding B1, the Kd with mouse Rbpj (53-474) WT is about 5 nM; with mouse Rbpj (53-474) E89G, about 5 nM; in assay [2] it was 21 nM.
Take VLLSRKRRRQHGQLWFPEGFKVSEASKK [Notch1 RAM domain peptide (human Notch1 residues 1754-1781)]: the equilibrium dissociation constant (Kd) (with mouse Rbpj (53-474) WT; with mouse Rbpj (53-474) E89G; in assay [2]) was about 20 nM each time.
